Experimental data reported in the DeepSol protein solubility set.

test: soluble on expression in E. coli; label from the status in PepcDB or PDB records

Row | Sequence | soluble on expression in E. coli
1 | MTMETVESQHDGSITASLTESKSAHVQTQTGQNSIPALAQVAAIAETDESAESGGVIDSHKRREILSRRPSYRKILNELSSDVPGVPKIEEERSEEEGTPPSIATMAVPTSIYQTSTGQYIAIAQGGTIQISNPGSDGVQGLQALTMTNSGAPPPGATIVQYAAQSADGTQQFFVPGSQVVVQAATGDMPTYQIRAPTAALPQGVVMAASPGSLHSPQQLAEEATRKRELRLMKNREAAKECRRRKKE | soluble
2 | MLNTTFANAKFANPFMNASGVHCMTIEDLEELKASQAGAYITKSSTLEKREGNPLPRYVDLELGSINSMGLPNLGFDYYLDYVLKNQKENAQEGPIFFSIAGMSAAENIAMLKKIQESDFSGITELNLSCPNVPGKPQLAYDFEATEKLLKEVFTFFTKPLGVKLPPYFDLVHFDIMAEILNQFPLTYVNSVNSIGNGLFIDPEAESVVIKPKDGFGGIGGAYIKPTALANVRAFYTRLKPEIQIIGTGGIETGQDAFEHLLCGATMLQIGTALHKEGPAIFDRIIKELEEIMNQKGYQSIADFHGKLKSL | soluble
3 | MAHHHHHHMAVASKGRIADVNQEELTKIGPKIDDVLSICLASFDSLRDMAFKFQYEQAAEKAAYQSGETKPDPMTQLMHVLQRMVDLTLGTAKAVYDQTLLEWRRRKGEGDADSPASQLASSQSMTSPEVLRNSSVEDFAAGSVAWIERGSHLSLLSLEVLSSVLLAHHYLRRDLQKYMLDVNVLDYLEKVFSMERDHELCYFPEGFKTECMRLIANLTHNNVDVNAALVERDTFLFNILSATQIDEENPGMVEWAEFALRNICESSAAAREKIRKLAPQGVTDQSREILAGRCSYSFSSTGKVQLHTQKPPLH | soluble
4 | MGSDKIHHHHHHMSRTLVLFDIDGTLLKVESMNRRVLADALIEVYGTEGSTGSHDFSGKMDGAIIYEVLSNVGLERAEIADKFDKAKETYIALFRERARREDITLLEGVRELLDALSSRSDVLLGLLTGNFEASGRHKLKLPGIDHYFPFGAFADDALDRNELPHIALERARRMTGANYSPSQIVIIGDTEHDIRCARELDARSIAVATGNFTMEELARHKPGTLFKNFAETDEVLASILTPKHS | not soluble
5 | MGSDKIHHHHHHMNRKGNLSMTTQLQHLTLPEDIQQKLLSYKEQPISPEFQSLIGTSGYEAEDEAILFDAIIALAMGKNVLLKGPTGSGKTKLAETLSSYFHKPMHSVNCSVDLDAEALVGYKTIENQSGQATIEFVSGPVTKAMKEGHFLYIDEINMAKPETLPILNGVLDYRKMMTNPFTGEVIRAKSGFGVIAAINEGYVGTVPLNEALKNRFVIIDVPYIKGELLKQVLMSQSALKDEKLIDRFITLSSDLIVQANNGQVSEEAASIRALIDTCDLAAYIPPRRAIERGIVEKLDDDREKAAVRNIAETLFE | not soluble
6 | AVKVGINGFGRIGRNVFRAALKNPDIEVVAVNDLTDANTLAHLLKYDSVHGRLDAEVSVNGNNLVVNGKEIIVKAERDPENLAWGEIGVDIVVESTGRFTKREDAAKHLEAGAKKVIISAPAKNEDITIVMGVNQDKYDPKAHHVISNASCTTNCLAPFAKVLHEQFGIVRGMMTTVHSYTNDQRILDLPHKDLRRARAAAESIIPTTTGAAKAVALVLPELKGKLNGMAMRVPTPNVSVVDLVAELEKEVTVEEVNAALKAAAEGELKGILAYSEEPLVSRDYNGSTVSSTIDALSTMVIDGKMVKVVSWYDNETGYSHRVVDLAAYIASKGL | soluble
7 | MRICSDQPCIVLLTEKDVWIRVNGKEPISLKANHMALLNCENNIIDVSSLNNTLVAHISHDIIKDYLRFLNKDLSQIPVWQRSATPILTLPCLTPDVFRVAAQHSMMPAETESEKERTRALLFTVLSRFLDSKKFVSLMMYMLRNCVSDSVYQIIESDIHKDWNLSMVASCLCLSPSLLKKKLKSENTSYSQIITTCRMRYAVNELMMDGKNISQVSQSCGYNSTSYFISVFKDFYGMTPLHYVSQHRERTVA | soluble
8 | MSKVNQQDIDKLIELVGGRGNIATVSHCITRLRFVLNDPAIARPKEIEQLRMVKGCFTNAGQFQVVIGTEVGDYYKALLATTGQTSADKEQVKQA | not soluble
9 | MKKSNIKTLEQFKDQNYGKKGTAKRDSLEMGYDTFKIGALIQEARIEKGMTQEELAIKCGTTKSYISRIENNIKEVRISTLQKIVELGFGGQLQLSIKF | not soluble
10 | AIANCCIGLGEKARGSHRASYPSLSALFTEASILGFGSFAVKAQWTEDCRKSTYPPSGPTVFPAVIRYRGAVPWYTINLDLPPYKRWHELMLDKAPVPGLLGNFPGPFEEEMKGIAAVTDIPLGEIISFNIFYELFTVCTSIVAEDKKGHLIHGRNMDFGVFLGWNINNDTWVITEQLKPLTVNLDFQRNNKTVFKASSFAGYVGMLTGFKPGLFSLTLNERFSINGGYLGILEWILGKKDAMWIGFLTRTVLENSTSYEEAKNLLTKTKILAPAYFILGGNQSGEGCVITRDRKESLDVYELDAKQGRWYVVQTNYDRWKHPFFLDDRRTPAKMCLNRTSQENISFETMYDVLSTKPVLNKLTVYTTLIDVTKGQFETYLRDCPDPCIGW | soluble
11 | MSLDFAKQGPIVIGGVGGSGTRLIAEIVMDMGFYLGGMLNQSKDLLYFSLLFKRPTWFSKVVTSNEQEIFRGLKILENRLTTQKELTGKDIKFIEKAAQTYRNGDLLAQKIKKNMLFPDPINRQLYRGWGWKEPNAHLFLPYIHRYFPNGKYIHVIRNGLNMAFSKNQQQLFNWGPLFGVTIPNNPMKIPNASLTYWIKANERAVMYGTEQMKGRFLLIQFDQLCVNPTPQLQKLAEFLAVDDLAIDEWSEKIDPAAAASKYKEGHHHHHH | soluble
12 | MKGLYPESVISRFDFAVTEDNKIKMLEFNSDTPTFIVECFQMNGKVCGNLGYDDPNSDQERLLSSGVTKAVMEATKGLDNPNVVFTAHHEHIEDWNTTMYLSQLCHVENKVVPMSELRITKDALVDKDGAKIDVLYRQTYPIEDLIEDQDPETGDLVGVELLQLVKAGKLFIINPLSAFLLQPKSIQCLIWGLAEEEAFYTNEEQQWIKEYMLPTYLEPDLFLGKGSFVQKPSFGREGDTITIRDKDENIMLQNAHQTYKASLPIFQKYIELPVVSLETEKGIEKLSYVFGSFLIAGKASSIGIRAGEKITGNESYYLPVGIKRRGKND | not soluble
13 | MGSDKIHHHHHHMSSEHQLLVGLLKKLKADALVLPTLPEVAMRVQEVVSRPDSSPKQVAEIIGQDAAISARMIKVANSAMYSRGIKAENINAAVTRIGLTQIKAIATSVAMEQLFISTNEMVWEVMDEVWRASIEVTSAACALLLKYSKTHKGCGLNYDTLTLASLVHNIGALPVLTEAEANPHLFTSIEQLRALVRKMQGPLGRAVLKSWDFSPEVTEVVERWADLPYLPEQVTYLDFVRAAAFYTGELRAGHDLEERLDVFLQRGLPVSPEYLGSDEFLDNYHSIKLSYE | not soluble
14 | MSQSNLIQTDRFVLSETERSSIEHEMHHYEDPRAASIEALKIVQKQRGWVPDGAIPAIGEVLGIPASDVEGVATFYSQIFRQPVGRHIIRVCDSMVCYIGGHESVVGEIQKQLGIGLGQTTADGRFTLLPVCCLGNCDKAPALMIDDDTHGDVRPDGVAKLLEAYV | not soluble
15 | GSSLASQGQNLSTVLANLTPEQQKNVLGERLYNHIVAINPAAAAKVTGMLLEMDNGEILNLLDTPGLLDAKVQEALEVLNRHMNV | soluble
16 | MEGGGAKDGSAAAAQTRGSGDDGSHKPLPPCCLKAKAAAAESEAKCHATVVSGWFTEPRSHSGKTSKVQYFNNPMWPGEAHSLKVENILYQGKSPYQEILVFESSTYGNVLVLDGIVQLTEKDECAYQEMVTHLPLCSIPSPKSVLVVGGGDGGVLREIARHASVENIDICEIDQLVIDVCKDFFPQLSVGFKDPRVQLHVGDAVDFLRNAPEGKYDAIIVDSSDPIGPAQELVEKPFFQTIARALKPGGVLCNQAESMWLHTHLIQDMLSICRETFKGAVHYAWTSVPTYPSGVIGFLLCAKEGPAVNFLSPVNPIEKLEGAMEAGREIRFYNSEVHRAAFVLPTFVRRELESHNTCAEKDKSETKPVAKPKKMKIMPNSAIPTAS | not soluble
17 | MGSDKIHHHHHHMETMFDTLLQLPLFQGLCHEDFTSILDKVKLHFIKHKAGETIIKSGNPCTQLCFLLKGEISIVTNAKENIYTVIEQIEAPYLIEPQSLFGMNTNYASSYVAHTEVHTVCISKAFVLSDLFRYDIFRLNYMNIVSNRAQNLYSRLWDEPTLDLKSKIIRFFLSHCEKPQGEKTFKVKMDDLARCLDDTRLNISKTLNELQDNGLIELHRKEILIPDAQKLL | soluble
